Source: publication PMC3725403

Molecular target: Arg224 (UniProt position 224, YHALYRYFVEL)
Test: electrophysiology

“TASK-2 (K2P5.1) two-pore domain K+ channel (Mus musculus)” gave a pKa (bath: 135 mM sodium gluconate, 1 mM potassium gluconate, 4 mM KCl, 2 mM CaCl2, 1 mM MgCl2, 105 mM sucrose, pipette: 8 mM KCl, 132 mM potassium gluconate, 1 mM MgCl2, 10 mM EGTA, 1 mM Na3ATP, 0.1 mM GT, 10 mM HEPES/Tris, 0 mV value from a fit across voltages, [K+]i/[K+]o 140/5 mM, intracellular pH 7.4) of 8.37, a pKa (bath: 135 mM sodium gluconate, 1 mM potassium gluconate, 4 mM KCl, 2 mM CaCl2, 1 mM MgCl2, 105 mM sucrose, pipette: 8 mM KCl, 132 mM potassium gluconate, 1 mM MgCl2, 10 mM EGTA, 1 mM Na3ATP, 0.1 mM GT, 10 mM HEPES/Tris, membrane potential +60 mV, [K+]i/[K+]o 140/5 mM, intracellular pH 7.4) of 8.15 and a pKa (bath: 135 mM sodium gluconate, 1 mM potassium gluconate, 4 mM KCl, 2 mM CaCl2, 1 mM MgCl2, 105 mM sucrose, pipette: 8 mM KCl, 132 mM potassium gluconate, 1 mM MgCl2, 10 mM EGTA, 1 mM Na3ATP, 0.1 mM GT, 10 mM HEPES/Tris, membrane potential -120 mV, [K+]i/[K+]o 140/5 mM, intracellular pH 7.4) of 8.76. For the same substance, the pKa (not stated, most extracellular Cl- replaced by sulphate, extracellular solution with most Cl- replaced by sulphate, voltage not stated, cited from earlier work) was 8.0.
